These results are taken from article PMC5880276.

In this assay the target is HpiC1. The experiment in a line: crystal structure.

Substance HpiC1 (enzyme) yielded a stoichiometry N of 2.
